Assay results taken from the supplement of paper PMC10266784.

B1: library; numbered along this chain (parent)
chain: MAAAAAAAAEQQSSNGPVKKSMREKAVERRSVNKEHNSNFKAGYIPIDEDRLHKTGLRGRKGNLAICVIILLFILAVINLIITLVIWAVIRIGPNGCDSMEFHESGLLRFKQVSDMGVIHPLYKSTVGGRRNENLVITGNNQPIVFQQGTTKLSVENNKTSITSDIGMQFFDPRTQNILFSTDYETHEFHLPSGVKSLNVQKASTERITSNATSDLNIKVDGRAIVRGNEGVFIMGKTIEFHMGGNMELKAENSIILNGSVMVSTTRLPSSSSGDQLGSGDWVRYKLCMCADGTLFKVQVTSQNMGCQISDNPCGNTH

Variants of: B1
Experiment: SGCB cell-surface expression functional score (HA stain, bin4 vs bin1, normalised to synonymous) (log10 ratio); higher = more cell-surface SGCB (functional)
Experimental: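 Deep mutational scan of full-length human SGCB (YFP-SGCB-HA, NNN codon sublibraries A-F) delivered by lentivirus at low MOI into ADG-HEK293 cells stably expressing SGCA, SGCD and SGCG. YFP-positive cells were stained for surface HA on unpermeabilized cells and FACS-sorted into bins. The functional score is log10(frequency in high bin 4 / frequency in low bin 1), normalised per chunk so that synonymous variants have mean 0 and SD 0.5. Scores are the median over codons and over duplicate biological replicates; scores below -0.5 are called non-functional. Scale: negative means deleterious.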

SGCB cell-surface expression functional score (log10), by site and new letter:
A26: I 0.06, S 0.09, G -0.21, R 0.15, T 0.24, K 0.41, F 0.47, E 0.27, P 0.09, Q 0.19, N -0.24, D 0.34, H 0.39, L -0.05, W 0.15, M 0.77, V 0.53, C -0.13, Y -0.11
E28: F 0.2, M 0.57, P 0.08, C 0.35, K -0.15, N -0.09, I 0.42, G -0.33, L 0.05, D -0.25, V 0.15, A -0.15, Q 0, W -0.12, S 0.21, Y 0.37, R 0.1, H -0.19, T 0.1
K25: H -0.78, T 0.27, C 0.39, I 0.13, N 0.42, W -0.25, P 0.05, F -0.28, A -0.05, D 0.19, M -0.1, G -0.06, S 0.46, L 0.18, V 0.16, R -0.14, Q 0.5, Y -0.31, E 0.07
S31: E 0.24, G 0.19, I 0.39, T 0.06, W 0.21, M -0.69, R -0.03, Q -0.35, H 0.19, P 0.13, A -0.25, C 0.19, F -0.24, N 0.37, V 0.19, D 0.16, Y -0.26, L 0.11, K 0.25
H36: A 0.35, D 0.26, C -0.16
V18: T 0.24, Q 0.17, R 0.23, S 0.21, W 0.55, P 0.29, N -0.03, Y 0.14
S21: P 0.12, V 0.14, R 0.08, D 0.33, I 0.3, C 0.5, L -0.08, N 0.32, W 0.3, Y -0.19, G 0.23, T 0.07, H 0.03, M -0.02, E -0.28, K 0.75, F -0.32, A 0.2, Q -0.25
K19: M 0.02, R 0.18, D 0.06, V -0.01, G 0.02, N 0.14, P 0.42, Y 0.34, F 0.01, C -0.11, Q -0.12, A 0.35, I 0.14, S 0.21, H 0.21, L 0.3, E 0.33, T -0.07, W 0.32
E24: A 0, C -0.3, Q 0.01, N 0.02, R -0.41, P 0, H 0.46, I 0.08, W 0.05, G 0.08, L 0.02, F -0.05, D 0.17, K 0.09, V 0.26, M -0.63, Y -0.19, S 0.26, T 0.2
N33: K 0.24, R 0.1, Y 0.04, V 0.23, I 0.03, H 0.48, E 0.11, W -0.14, T -0.07, F 0.1, P 0.04, G 0.33, L -0.11, M 0.11, A 0.36, Q -0.23, C -0.01, D 0.4, S -0.01
R30: D 0.85, C 0.31, E 0.42, I -0.19, W 0.33, A 0.22, G 0.59, N 0.64, M -0.06, H -0.02, F 0.27, L 0.15, V -0.05, Q 0.15, K 0.16, Y -0.56, S 0.04, T 0.19, P -0.15
R29: E 0.41, N 0.21, Q 0.16, I 0.13, A 0.46, K -0.66, L -0.3, G 0.3, F -0.17, P 0.32, M -0.81, D -0.22, C 0.5, S 0.25, H -0.15, V -0.29, Y 0.23, T -0.04, W 0.21
K34: D 0.26, C 0.33, Y 0.56, W 0.11, V 0.44, P 0.25, H 0.6, G 0.01, E 0.34, Q -0.08, S 0.52, N -0.07, I -0.05, L 0.21, M -0.24, R 0.1, A -0.03, T 0.27, F -0.14
M22: Q 0.27, P 0.17, I -0.22, A 0.08, R 0.01, F 0.1, K 0.08, N 0.39, T 0.16, V 0.01, D -0.21, W 0.08, H 0.19, S 0.52, G -0.11, C 0.56, L 0.37, E 0.07, Y -0.14
E35: C -0.07, K 0.23, Q -0.06, H 0.32, W 0.28, L -0.2, Y 0.26, R 0.18, N 0.01, S 0.03, M 0.1, P -0.21, A 0.3, V 0.1, G 0.11, I 0.08, D 0.11, T 0.06, F -0.1
K20: E 0.06, V 0.32, C 0.12, P 0.39, A 0.08, T 0, Q 0.49, R 0.2, I 0.09, H -0.13, S 0.14, Y -0.59, W 0.05, D 0.22, G -0.09, M 0.39, N -0.16, F 0.1, L 0.12
R23: S -0.16, W -0.61, Q 0.33, N 0.03, V 0.59, T 0.24, I -0.31, A -0.06, M -0.27, K -0.04, Y 0.05, G 0.48, L 0.16, F 0.12, E 0.28, P 0.31, H 0.2, D -0.13, C 0.49
V27: E 0.04, Y 0.26, W 0.1, F 0.28, L 0.26, G -0.22, I 0.03, R 0.06, K 0.02, S 0.13, P -0.17, D -0.2, T 0.04, C -0.05, M -0.41, A 0.22, H 0.05, Q 0.09, N 0.45
V32: E -0.59, S 0.11, L -0.06, Q -0.03, N 0.67, I 0.36, A 0.26, K -0.04, G 0.1, Y -0.45, M -0.13, C 0.14, T -0.08, H 0.35, R 0.37, D 0.47, F -0.5, W -0.05, P 0.11
